± gives the uncertainty stated by the source.

Experimental findings from the Human Domainome abundance scans (Beltran et al. 2025) are described below.

The labels stand for the following.
B1: POU domain, class 2, transcription factor 3, residues 186 to 260; numbered along this chain, Q9UKI9 (parent)
chain: SDLEELEKFAKTFKQRRIKLGFTQGDVGLAMGKLYGNDFSQTTISRFEALNLSFKNMCKLKPLLEKWLNDAESSP
B2: Transitional endoplasmic reticulum ATPase, residues 26 to 106; numbered along this chain, P55072 (parent)
chain: LIVDEAINEDNSVVSLSQPKMDELQLFRGDTVLLKGKKRREAVCIVLSDDTCSDEKIRMNRVVRNNLRVRLGDVISIQPCP

Variants of B1 are the subject of one data set. The experiment in a line: abundance fitness (aPCA) (normalised: wild type 0, dead -1); higher = more abundant; growth selection in yeast, the domain comes from the species named. The settings on record: Homo sapiens.
Consider SNLEELEKFAKTFKQRRIKLGFTQGDVGLAMGKLYGNDFSQTTISRFEALNLSFKNMCKLKPLLEKWLNDAESSP [D2N], for which the abundance fitness was -0.107 ± 0.21.

Regarding SGLEELEKFAKTFKQRRIKLGFTQGDVGLAMGKLYGNDFSQTTISRFEALNLSFKNMCKLKPLLEKWLNDAESSP [D2G], the abundance fitness was -0.01 ± 0.41.

As to SELEELEKFAKTFKQRRIKLGFTQGDVGLAMGKLYGNDFSQTTISRFEALNLSFKNMCKLKPLLEKWLNDAESSP [D2E], the abundance fitness is 0.015 ± 0.1.

SDLEELEKFGKTFKQRRIKLGFTQGDVGLAMGKLYGNDFSQTTISRFEALNLSFKNMCKLKPLLEKWLNDAESSP [A10G]: the abundance fitness was -0.064 ± 0.16.

As for SDLEELEGFAKTFKQRRIKLGFTQGDVGLAMGKLYGNDFSQTTISRFEALNLSFKNMCKLKPLLEKWLNDAESSP [K8G], the abundance fitness is -0.115 ± 0.1.

As to SDLEELEKFAKTFKARRIKLGFTQGDVGLAMGKLYGNDFSQTTISRFEALNLSFKNMCKLKPLLEKWLNDAESSP [Q15A], the abundance fitness is 0.474 ± 0.32.

Consider SDLEELEKLAKTFKQRRIKLGFTQGDVGLAMGKLYGNDFSQTTISRFEALNLSFKNMCKLKPLLEKWLNDAESSP [F9L], for which the abundance fitness is -0.514 ± 0.44.

As to SDLEELEKVAKTFKQRRIKLGFTQGDVGLAMGKLYGNDFSQTTISRFEALNLSFKNMCKLKPLLEKWLNDAESSP [F9V], the abundance fitness is -0.441 ± 0.2.

SDLEELEKSAKTFKQRRIKLGFTQGDVGLAMGKLYGNDFSQTTISRFEALNLSFKNMCKLKPLLEKWLNDAESSP [F9S]: the abundance fitness is -0.153 ± 0.29.

Turning to SDLEELEKGAKTFKQRRIKLGFTQGDVGLAMGKLYGNDFSQTTISRFEALNLSFKNMCKLKPLLEKWLNDAESSP [F9G], the abundance fitness is -0.387 ± 0.28.

As for SDLEELEKFAKTFKQGRIKLGFTQGDVGLAMGKLYGNDFSQTTISRFEALNLSFKNMCKLKPLLEKWLNDAESSP [R16G], the abundance fitness was -0.147 ± 0.11.

Regarding SDLESLEKFAKTFKQRRIKLGFTQGDVGLAMGKLYGNDFSQTTISRFEALNLSFKNMCKLKPLLEKWLNDAESSP [E5S], the abundance fitness was found to be 0.031 ± 0.03.

Regarding SDLEWLEKFAKTFKQRRIKLGFTQGDVGLAMGKLYGNDFSQTTISRFEALNLSFKNMCKLKPLLEKWLNDAESSP [E5W], the abundance fitness is -0.137 ± 0.033.

SDLETLEKFAKTFKQRRIKLGFTQGDVGLAMGKLYGNDFSQTTISRFEALNLSFKNMCKLKPLLEKWLNDAESSP [E5T]: the abundance fitness turned out to be 0.013 ± 0.031.

Take SDLEHLEKFAKTFKQRRIKLGFTQGDVGLAMGKLYGNDFSQTTISRFEALNLSFKNMCKLKPLLEKWLNDAESSP [E5H]: the abundance fitness was determined as 0.029 ± 0.049.

For SDLEDLEKFAKTFKQRRIKLGFTQGDVGLAMGKLYGNDFSQTTISRFEALNLSFKNMCKLKPLLEKWLNDAESSP [E5D], the abundance fitness came out at 0.036 ± 0.036.

As for SDLEYLEKFAKTFKQRRIKLGFTQGDVGLAMGKLYGNDFSQTTISRFEALNLSFKNMCKLKPLLEKWLNDAESSP [E5Y], the abundance fitness is -0.269 ± 0.051.

On to SDLEGLEKFAKTFKQRRIKLGFTQGDVGLAMGKLYGNDFSQTTISRFEALNLSFKNMCKLKPLLEKWLNDAESSP [E5G], for which the abundance fitness was -0.045 ± 0.027.

In the case of SDLECLEKFAKTFKQRRIKLGFTQGDVGLAMGKLYGNDFSQTTISRFEALNLSFKNMCKLKPLLEKWLNDAESSP [E5C], the abundance fitness was -0.005 ± 0.036.

Take SDLEMLEKFAKTFKQRRIKLGFTQGDVGLAMGKLYGNDFSQTTISRFEALNLSFKNMCKLKPLLEKWLNDAESSP [E5M]: the abundance fitness came out at 0.016 ± 0.036.

With SDLEFLEKFAKTFKQRRIKLGFTQGDVGLAMGKLYGNDFSQTTISRFEALNLSFKNMCKLKPLLEKWLNDAESSP [E5F], the abundance fitness was -0.102 ± 0.044.

On to SDLEALEKFAKTFKQRRIKLGFTQGDVGLAMGKLYGNDFSQTTISRFEALNLSFKNMCKLKPLLEKWLNDAESSP [E5A], for which the abundance fitness was determined as 0.042 ± 0.028.

SDLERLEKFAKTFKQRRIKLGFTQGDVGLAMGKLYGNDFSQTTISRFEALNLSFKNMCKLKPLLEKWLNDAESSP [E5R]: the abundance fitness is -0.003 ± 0.026.

SDLEQLEKFAKTFKQRRIKLGFTQGDVGLAMGKLYGNDFSQTTISRFEALNLSFKNMCKLKPLLEKWLNDAESSP [E5Q]: the abundance fitness came out at 0.003 ± 0.04.

SDLENLEKFAKTFKQRRIKLGFTQGDVGLAMGKLYGNDFSQTTISRFEALNLSFKNMCKLKPLLEKWLNDAESSP [E5N]: the abundance fitness is -0.031 ± 0.061.

In the case of SDLEILEKFAKTFKQRRIKLGFTQGDVGLAMGKLYGNDFSQTTISRFEALNLSFKNMCKLKPLLEKWLNDAESSP [E5I], the abundance fitness was -0.022 ± 0.061.

FDLEELEKFAKTFKQRRIKLGFTQGDVGLAMGKLYGNDFSQTTISRFEALNLSFKNMCKLKPLLEKWLNDAESSP [S1F]: the abundance fitness is -0.062 ± 0.2.

In the case of SDLEEFEKFAKTFKQRRIKLGFTQGDVGLAMGKLYGNDFSQTTISRFEALNLSFKNMCKLKPLLEKWLNDAESSP [L6F], the abundance fitness is -0.229 ± 0.32.

With SDLEESEKFAKTFKQRRIKLGFTQGDVGLAMGKLYGNDFSQTTISRFEALNLSFKNMCKLKPLLEKWLNDAESSP [L6S], the abundance fitness is -0.16 ± 0.39.

On to SDLEELEKFAKRFKQRRIKLGFTQGDVGLAMGKLYGNDFSQTTISRFEALNLSFKNMCKLKPLLEKWLNDAESSP [T12R], for which the abundance fitness is -0.018 ± 0.11.

Turning to SDLEELEKFAKNFKQRRIKLGFTQGDVGLAMGKLYGNDFSQTTISRFEALNLSFKNMCKLKPLLEKWLNDAESSP [T12N], the abundance fitness came to 0.063 ± 0.13.

For the variant SDLEELEKFAKQFKQRRIKLGFTQGDVGLAMGKLYGNDFSQTTISRFEALNLSFKNMCKLKPLLEKWLNDAESSP [T12Q], the abundance fitness amounted to 0.01 ± 0.13.

As to SDLEELEKFAKTFAQRRIKLGFTQGDVGLAMGKLYGNDFSQTTISRFEALNLSFKNMCKLKPLLEKWLNDAESSP [K14A], the abundance fitness is -0.309 ± 0.32.

Take SDLEELEKFAKTFKQRRLKLGFTQGDVGLAMGKLYGNDFSQTTISRFEALNLSFKNMCKLKPLLEKWLNDAESSP [I18L]: the abundance fitness is -0.025 ± 0.028.

Regarding SDLEELEKFAKTFKQRRKKLGFTQGDVGLAMGKLYGNDFSQTTISRFEALNLSFKNMCKLKPLLEKWLNDAESSP [I18K], the abundance fitness was -0.028 ± 0.042.

SDLEELEKFAKTFKQRRCKLGFTQGDVGLAMGKLYGNDFSQTTISRFEALNLSFKNMCKLKPLLEKWLNDAESSP [I18C]: the abundance fitness was -0.143 ± 0.046.

Take SDLEELEKFAKTFKQRRHKLGFTQGDVGLAMGKLYGNDFSQTTISRFEALNLSFKNMCKLKPLLEKWLNDAESSP [I18H]: the abundance fitness was -0.133 ± 0.072.

Take SDLEELEKFAKTFKQRRDKLGFTQGDVGLAMGKLYGNDFSQTTISRFEALNLSFKNMCKLKPLLEKWLNDAESSP [I18D]: the abundance fitness is -0.063 ± 0.048.

Consider SDLEELEKFAKTFKQRREKLGFTQGDVGLAMGKLYGNDFSQTTISRFEALNLSFKNMCKLKPLLEKWLNDAESSP [I18E], for which the abundance fitness turned out to be 0.064 ± 0.031.

For the variant SDLEELEKFAKTFKQRRAKLGFTQGDVGLAMGKLYGNDFSQTTISRFEALNLSFKNMCKLKPLLEKWLNDAESSP [I18A], the abundance fitness is -0.056 ± 0.031.

In the case of SDLEELEKFAKTFKQRRFKLGFTQGDVGLAMGKLYGNDFSQTTISRFEALNLSFKNMCKLKPLLEKWLNDAESSP [I18F], the abundance fitness is -0.266 ± 0.076.

Consider SDFEELEKFAKTFKQRRIKLGFTQGDVGLAMGKLYGNDFSQTTISRFEALNLSFKNMCKLKPLLEKWLNDAESSP [L3F], for which the abundance fitness was -0.055 ± 0.32.

Variants of B2 are the subject of a further data set. Described as above. Conditions: Homo sapiens.
Consider L16S, for which the abundance fitness is -0.595 ± 0.072.

As to L16I, the abundance fitness is -0.005 ± 0.075.

As for L16Q, the abundance fitness is -0.584 ± 0.1.

For D73H, the abundance fitness was -0.135 ± 0.14.

For the variant D73R, the abundance fitness is -0.715 ± 0.084.

For P81C, the abundance fitness is -0.262 ± 0.29.

Consider M59E, for which the abundance fitness is -0.768 ± 0.43.

In the case of M59R, the abundance fitness was -1.08 ± 0.13.

Take Q78F: the abundance fitness is -0.345 ± 0.12.

Take A42M: the abundance fitness was -0.018 ± 0.065.

Consider A42N, for which the abundance fitness was -0.147 ± 0.18.

Take A42Y: the abundance fitness was -0.045 ± 0.22.

As to L34T, the abundance fitness is -0.558 ± 0.07.

For I77E, the abundance fitness was -0.85 ± 0.22.

For the variant I77H, the abundance fitness is -0.842 ± 0.47.

In the case of F27N, the abundance fitness is -0.022 ± 0.12.

Regarding F27P, the abundance fitness was -0.238 ± 0.084.

In the case of F27C, the abundance fitness was 0.045 ± 0.076.

On to N66E, for which the abundance fitness was determined as 0.042 ± 0.084.

On to N66A, for which the abundance fitness is -0.071 ± 0.069.

Turning to A6L, the abundance fitness is 0.092 ± 0.051.

For Q18K, the abundance fitness was -0.037 ± 0.19.

On to I57W, for which the abundance fitness is -0.848 ± 0.18.

With C52W, the abundance fitness is -0.728 ± 0.11.

In the case of C52V, the abundance fitness is -0.062 ± 0.054.

With C52K, the abundance fitness was -0.334 ± 0.14.

With C52P, the abundance fitness is -0.624 ± 0.13.

As for I7T, the abundance fitness is -0.099 ± 0.079.

As to K56G, the abundance fitness is 0.008 ± 0.04.

For the variant K56S, the abundance fitness amounted to 0.034 ± 0.061.

K56M: the abundance fitness is -0.112 ± 0.082.

On to V46F, for which the abundance fitness was -0.688 ± 0.15.

In the case of V46L, the abundance fitness was -0.183 ± 0.046.

Take V46S: the abundance fitness is -0.493 ± 0.078.

With L1C, the abundance fitness was -0.117 ± 0.21.

S12G: the abundance fitness is 0.029 ± 0.045.

Consider S12E, for which the abundance fitness is 0.039 ± 0.062.

In the case of S12P, the abundance fitness is -0.126 ± 0.065.

Consider V14T, for which the abundance fitness is -0.743 ± 0.11.

Consider V14L, for which the abundance fitness is -0.763 ± 0.073.

As for V14H, the abundance fitness was -0.956 ± 0.2.

Consider C44L, for which the abundance fitness was -0.02 ± 0.034.

In the case of C44T, the abundance fitness is -0.066 ± 0.07.

Regarding C44S, the abundance fitness is -0.032 ± 0.069.

Consider C44Q, for which the abundance fitness came to 0.106 ± 0.083.

In the case of C44K, the abundance fitness was 0.057 ± 0.075.

Consider V74G, for which the abundance fitness was -0.085 ± 0.052.

Turning to R68Y, the abundance fitness turned out to be 0.274 ± 0.23.

As to R68P, the abundance fitness was -0.891 ± 0.17.

For the variant N8H, the abundance fitness was -0.042 ± 0.095.
